Assay [1] deals with Myxococcus xanthus Mutual gliding motility A, MxMglA(His6) (Myxococcus xanthus) (UniProt Q1DB04). The experiment in a line: fluorescence polarisation; fluorescence anisotropy of 400 nM mant-GppNHp (m-GNP) mixed with 2 μM MxMglA or its mutant, titrated with MxMglB or MxMglB^ΔCt (concentration as MglB dimer); one site-specific binding fit. (In general: Polarisation of emitted light reports the rotation of a fluorescent probe.)

Assay [2] has as its target T1, Myxococcus xanthus Mutual gliding motility B, full-length MxMglB(His6) (Myxococcus xanthus), Q1DB03.
T1 chain: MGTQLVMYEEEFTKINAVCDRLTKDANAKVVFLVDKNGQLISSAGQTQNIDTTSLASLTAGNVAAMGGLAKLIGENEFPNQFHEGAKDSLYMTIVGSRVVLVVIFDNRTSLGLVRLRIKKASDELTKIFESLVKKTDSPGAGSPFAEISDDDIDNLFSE
The experiment in a line: crystal structure; MxMglA and MxMglB mixed 1:1 (MglB as monomer), 4 mg/ml each, in A50 buffer with 5 mM MgCl2 and 2 mM GTPγS; PEG 4000 or PEG 3350 with 200 mM ammonium sulphate. The settings on record: remark: other sources report otherwise.

Assay [3] has as its target T2, Myxococcus xanthus Mutual gliding motility A, MxMglA(His6) (Myxococcus xanthus, UniProt Q1DB04 1-195).
T2 construct: MglA, small Ras-like GTPase of Myxococcus xanthus; gene mglA amplified from genomic DNA (DSMZ 16526) and cloned into pHis17 between NdeI and BamHI; In the assays it carried m-GDP, m-GNP (mant-GppNHp) or GTPγS; source: E. coli BL21-DE3, purified (HisTrap, Superdex75); not shown: His6, C-terminal, kept
T2 sequence: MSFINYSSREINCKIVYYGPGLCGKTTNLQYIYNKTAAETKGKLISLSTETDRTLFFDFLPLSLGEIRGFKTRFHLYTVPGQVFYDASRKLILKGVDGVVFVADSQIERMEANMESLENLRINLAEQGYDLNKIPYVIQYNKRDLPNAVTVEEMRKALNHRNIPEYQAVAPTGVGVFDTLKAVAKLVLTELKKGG
The experiment in a line: fluorescence polarisation; fluorescence anisotropy of 400 nM mant-GDP (m-GDP) mixed with 2 μM MxMglA or its mutant, titrated with MxMglB or MxMglB^ΔCt (concentration as MglB dimer); one site-specific binding fit. The settings on record: both partners purified.

Assay [4] addresses T2, Myxococcus xanthus Mutual gliding …. The experiment in a line: fluorescence polarisation; fluorescence anisotropy of 400 nM mant-GppNHp (m-GNP) mixed with 2 μM MxMglA or its mutant, titrated with MxMglB or MxMglB^ΔCt (concentration as MglB dimer); one site-specific binding fit. To be noted: both partners purified.
For assay [5], the target named is T3, MxMglA^K, MxMglA K181A and K185A double mutant (Myxococcus xanthus, UniProt Q1DB04 1-195, K181A | K185A).
T3 construct: Mutant of m1; source: E. coli BL21-DE3, purified (protocol similar to MxMglA(His6))
T3 sequence: T2 sequence with K181A, K185A
The description is as above. The settings on record: both partners purified.

Assay [6] concerns the target T4, MxMglA^L, MxMglA L64A and I67A double mutant (Myxococcus xanthus, UniProt Q1DB04 1-195, L64A | I67A).
T4 construct: MglA of Myxococcus xanthus with L64A and I67A (β2-β3 loop, interswitch region); Mutant of m1; source: E. coli BL21-DE3, purified (protocol similar to MxMglA(His6))
T4 sequence: T2 sequence with L64A, I67A
The description is as above. To be noted: both partners purified.

The target in assay [7] is T5, MxMglA^Q82L, active site mutant of MxMglA (Myxococcus xanthus, UniProt Q1DB04 1-195, Q82L).
T5 construct: MglA of Myxococcus xanthus with Q82L (active site); Mutant of m1; source: E. coli BL21-DE3, purified (protocol similar to MxMglA(His6))
T5 sequence: T2 sequence with Q82L
The description is as above. The settings on record: both partners purified.

Assay [8] concerns the target T2, Myxococcus xanthus Mutual gliding …. The experiment in a line: crystal structure; MxMglA and MxMglB mixed 1:1 (MglB as monomer), 4 mg/ml each, in A50 buffer with 5 mM MgCl2 and 2 mM GTPγS; PEG 4000 or PEG 3350 with 200 mM ammonium sulphate. The settings on record: both partners purified.

Positions count from the first letter of the chain named.

By Kd is commonly meant the constant that tells how readily two partners part at equilibrium. High values mean weaker binding, low ones tighter binding. By stoichiometry N is commonly meant the number of molecules, sites or subunits per partner or assembly.

In turn, “MxMglB^ΔCt(His6), truncated MxMglB lacking the C-terminal helix (domain or fragment)” displayed a Kd in assay [1] of 290 nM.

B1: Myxococcus xanthus Mutual gliding motility B, full-length MxMglB(His6) (natural protein, UniProt Q1DB03 1-159, looked up)
chain: T1 chain
notes: Rbl/LC7 core residues 10-131, Ct-helix residues 147-157; also called MglB1 and MglB2 (the two protomers in the crystal); source: E. coli BL21-AI, purified (HisTrap, Superdex75); not shown: His6, C-terminal, kept
Regarding B1, the stoichiometry N in assay [2] is 2. Further, the Kd in assay [3] came out at 120 ± 30 nM; in assay [4] it was 100 ± 40 nM. For the same molecule, the binding result in assay [5], in assay [6] and in assay [7] was “binds” in each case.

B2: selenomethionine-labeled MxMglB^L156M (natural protein, Myxococcus xanthus)
chain: T1 chain with L156M
modifications: selenomethionine-labeled
notes: MglB of Myxococcus xanthus with Leu156 mutated to methionine; construct without histidine tag; Made to confirm the registry of the Ct-helix; Probably a point mutant of full-length MglB
Regarding B2, in assay [8], the binding result was “binds”.

B3: selenomethionine-labeled MxMglB^I148M (natural protein, Myxococcus xanthus)
chain: T1 chain with I148M
modifications: selenomethionine-labeled
notes: MglB of Myxococcus xanthus with Ile148 mutated to methionine; construct without histidine tag; Made to confirm the registry of the Ct-helix; Probably a point mutant of full-length MglB
For the molecule B3, in assay [8], the binding result is reported as “binds”.

The values above are taken from publication PMC6785124, “Allosteric regulation of a prokaryotic small Ras-like GTPase contributes to cell polarity oscillations in bacterial motility” (PLoS Biology, 2019).
